The values below come from WO2011097527A2.

As a reminder, the Kd is the equilibrium constant for the complex coming apart. What is called EC50 is the concentration giving half of the maximal effect. A lower EC50 goes with greater potency.

Assay [1] deals with recombinant human FcγRIIb (human) (UniProt P31994). Briefly: SPR (Biacore), global Langmuir fit. For orientation: Surface plasmon resonance follows binding to a sensor surface in real time, without labels.
Assay [2] addresses FcγRIIb on the cell surface (UniProt P31994). The assay can be described thus: binding to cell-surface FcγRIIb (cells and method not stated).

As for S239D/S267E (antibody), in assay [1], the Fold (KD(Native IgG1)/KD(variant)) was 150 fold and the Kd stood at 12 nM. Further, in assay [2], the EC50 came to 2 nM and the Fold (cell surface EC50 against native IgG1) came to 220 fold.
